One assay concerns the target T1, IL-1α (UniProt P01583 113-271).
T1 construct: also called IL-1alpha; IL-1a
T1 sequence (looked up): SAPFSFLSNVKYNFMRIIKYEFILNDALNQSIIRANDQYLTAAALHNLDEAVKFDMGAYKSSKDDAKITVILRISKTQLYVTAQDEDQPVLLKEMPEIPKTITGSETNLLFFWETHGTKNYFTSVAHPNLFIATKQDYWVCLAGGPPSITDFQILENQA
The assay can be described thus: direct bind ELISA.

The target of assay [1] is T2, Recombinant Human IL-1β (human, UniProt P01584 117-269).
T2 construct: also called IL-1b; IL-1B
The assay can be described thus: direct bind ELISA. In general terms: ELISA stands for enzyme-linked immunosorbent assay.

The target in assay [2] is T3, Recombinant Human TRANCE/RANKL/TNFSF 11 (human, UniProt O14788 69-317).
T3 construct: extracellular domain
T3 sequence (looked up): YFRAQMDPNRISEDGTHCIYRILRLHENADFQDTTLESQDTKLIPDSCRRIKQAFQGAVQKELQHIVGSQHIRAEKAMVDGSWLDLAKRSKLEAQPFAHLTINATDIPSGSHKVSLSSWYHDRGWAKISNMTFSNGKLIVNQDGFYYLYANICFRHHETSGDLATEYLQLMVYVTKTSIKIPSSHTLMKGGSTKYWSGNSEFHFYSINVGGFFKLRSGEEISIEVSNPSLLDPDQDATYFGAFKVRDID
The assay can be described thus: direct bind ELISA. Here is the method: (§1) Enzyme Linked Immunosorbent Assays to screen for antibodies that bind a desired target antigen were performed as follows. High bind ELISA plates (Corning Costar # 3369, Acton, Mass.) were coated with 100 μL/well of 10 μg/ml of desired target antigen (R&D Systems, Minneapolis, Minn.) or desired target antigen extra-cellular domain/FC fusion protein (R&D Systems, Minneapolis, Minn.) or monoclonal mouse anti-polyhistidine antibody (R&D Systems # MAB050, Minneapolis, Minn.) in phosphate buffered saline (10×PBS, Abbott Bioresearch Center, Media Prep# MPS-073, Worcester, Mass.) overnight at 4° C. Plates were washed four times with PBS containing 0.02% Tween 20. Plates were blocked by the addition of 300 μL/well blocking solution (non-fat dry milk powder, various retail suppliers, diluted to 2% in PBS) for ½ hour at room temperature. Plates were washed four times after blocking with PBS containing 0.02% Tween 20.
(§2) Plates were washed 4 times with PBS containing 0.02% Tween 20.
(§3) One hundred microliters of enhanced TMB solution (Neogen Corp. #308177, K Blue, Lexington, Ky.) was added to each well and incubated for 10 minutes at room temperature. The reaction was stopped by the addition of 50 μL 1N sulphuric acid. Plates were read spectrophotometrically at a wavelength of 450 nm.

The target in assay [3] is T2, Recombinant Human IL-1β. The assay can be described thus: Biacore SPR. As to the method: (§4) The BIACORE assay (Biacore, Inc, Piscataway, N.J.) determines the affinity of antibodies or DVD-Ig with kinetic measurements of on-rate and off-rate constants. Binding of antibodies or DVD-Ig to a target antigen (for example, a purified recombinant target antigen) is determined by surface plasmon resonance-based measurements with a BiacoreR 1000 or 3000 instrument (Biacore® AB, Uppsala, Sweden) using running HBS-EP (10 mM HEPES [pH 7.4], 150 mM NaCl, 3 mM EDTA, and 0.005% surfactant P20) at 25° C. All chemicals are obtained from Biacore® AB (Uppsala, Sweden) or otherwise from a different source as described in the text. For example, approximately 5000 RU of goat anti-mouse IgG, (Fcγ), fragment specific polyclonal antibody (Pierce Biotechnology Inc, Rockford, Ill.) diluted in 10 mM sodium acetate (pH 4.5) is directly immobilized across a CM5 research grade biosensor chip using a standard amine coupling kit according to manufacturer's instructions and procedures at 25 μg/ml. Unreacted moieties on the biosensor surface are blocked with ethanolamine. Modified carboxymethyl dextran surface in flowcell 2 and 4 is used as a reaction surface. Unmodified carboxymethyl dextran without goat anti-mouse IgG in flow cell 1 and 3 is used as the reference surface. For kinetic analysis, rate equations derived from the 1:1 Langmuir binding model are fitted simultaneously to association and dissociation phases of all eight injections (using global fit analysis) with the use of Biaevaluation 4.0.1 software. Purified antibodies or DVD-Ig are diluted in HEPES-buffered saline for capture across goat anti-mouse IgG specific reaction surfaces. Antibodies or DVD-Ig to be captured as a ligand (25 μg/ml) are injected over reaction matrices at a flow rate of 5 μl/min. The association and dissociation rate constants, kₒₙ (M⁻¹s⁻¹) and koff (s⁻¹) are determined under a continuous flow rate of 25 μl/min. Rate constants are derived by making kinetic binding measurements at different antigen concentrations ranging from […]. The equilibrium dissociation constant (M) of the reaction between antibodies or DVD-Igs and the target antigen is then calculated from the kinetic rate constants by the following formula: KD=koff/kₒₙ. Binding is recorded as a function of time and kinetic rate constants are calculated.
A general note: In SPR one partner is held on a chip, and binding of the other changes the refractive index at the surface.

The target in assay [4] is T2, Recombinant Human IL-1β. The assay can be described thus: direct bind ELISA. Here is the method:
as §1, §2, §3
The source holds these as a separate data set.

The target of assay [5] is T2, Recombinant Human IL-1β. The assay can be described thus: cell-based or functional assay.
Assay [6] addresses T3, Recombinant Human TRANCE/RANKL/TNFSF 11. The assay can be described thus: Biacore SPR. Here is the method: as §4

Results on ten molecules are retold here after patent US20090311253A1 (AbbVie / Abbott, published 2009).

Several values for one entry are separate records, joined by “and”; a condition that tells them apart may be missing. Identical values can stand only once. Like-named read-outs stand apart in the source and are kept apart here.

B1: DVD381 (bispecific antibody, human IgG1, kappa)
heavy: not shown
light: DIQMTQSPSSVSASVGDRVTITCRASQGISSWLAWYQQKPGKAPKLLIYEASNLETGVPSRFSGSGSGSDFTLTISSLQPEDFATYYCQQTSSFLLSFGGGTKVEHKRTVAAPSVFIFPPEIVLTQSPDFQSVTPKEKVTITCRASQSIGSSLHWYQQKPDQSPKLLIKYASQSFSGVPSRFSGSGSGTDFTLTINSLEAEDAAAYYCHQSSSLPFTFGPGTKVDIKRTVAAPSVFIFPPSDEQLKSGTASVVCLLNNFYPREAKVQWKVDNALQSGNSQESVTEQDSKDSTYSLSSTLTLSKADYEKHKVYACEVTHQGLSSPVTKSFNRGEC
notes: vectors V1, V2
Regarding B1, the EC50 (commonly the concentration that produces a half-maximal response) was 965 nM in the assay with IL-1α and 500 nM with Recombinant Human IL-1β [1].

B2: DVD379 (bispecific antibody, human IgG1, kappa)
heavy: not shown
light: DIQMTQSPSSVSASVGDRVTITCRASQGISSWLAWYQQKPGKAPKLLIYEASNLETGVPSRFSGSGSGSDFTLTISSLQPEDFATYYCQQTSSFLLSFGGGTKVEHKRTVAAPDIQMTQSPSSLSASVGDRVTITCRASGNIHNYLTWYQQTPGKAPKLLIYNAKTLADGVPSRFSGSGSGTDYTFTISSLQPEDIATYYCQHFWSIPYTFGQGTKLQITTVAAPSVFIFPPSDEQLKSGTASVVCLLNNFYPREAKVQWKVDNALQSGNSQESVTEQDSKDSTYSLSSTLTLSKADYEKHKVYACEVTHQGLSSPVTKSFNRGEC
notes: vectors V1, V2
Consider B2, for which, in the assay with Recombinant Human IL-1β [1], the EC50 came to 150 nM.

B3: DVD383 (bispecific antibody, human IgG1, kappa)
heavy: not shown
light: DIQMTQSPSSVSASVGDRVTITCRASQGISSWLAWYQQKPGKAPKLLIYEASNLETGVPSRFSGSGSGSDFTLTISSLQPEDFATYYCQQTSSFLLSFGGGTKVEHKRTVAAPSVFIFPPDIQMTQSPSSLSASVGDRVTITCRASGNIHNYLTWYQQTPGKAPKLLIYNAKTLADGVPSRFSGSGSGTDYTFTISSLQPEDIATYYCQHFWSIPYTFGQGTKLQITTVAAPSVFIFPPSDEQLKSGTASVVCLLNNFYPREAKVQWKVDNALQSGNSQESVTEQDSKDSTYSLSSTLTLSKADYEKHKVYACEVTHQGLSSPVTKSFNRGEC
notes: vectors V1, V2
Take B3: in the assay with Recombinant Human IL-1β [1], the EC50 was 2620 nM.

B4: DVD377 (bispecific antibody, human IgG1, kappa)
heavy: not shown
light: DIQMTQSPSSVSASVGDRVTITCRASQGISSWLAWYQQKPGKAPKLLIYEASNLETGVPSRFSGSGSGSDFTLTISSLQPEDFATYYCQQTSSFLLSFGGGTKVEHKRTVAAPEIVLTQSPDFQSVTPKEKVTITCRASQSIGSSLHWYQQKPDQSPKLLIKYASQSFSGVPSRFSGSGSGTDFTLTINSLEAEDAAAYYCHQSSSLPFTFGPGTKVDIKRTVAAPSVFIFPPSDEQLKSGTASVVCLLNNFYPREAKVQWKVDNALQSGNSQESVTEQDSKDSTYSLSSTLTLSKADYEKHKVYACEVTHQGLSSPVTKSFNRGEC
notes: vectors V1, V2
For the molecule B4, the concentration for a half-maximal effect (EC50) came to 143 nM with IL-1α and 165 nM with Recombinant Human IL-1β [1].

B5: DVD378 (bispecific antibody, human IgG1, kappa)
heavy: not shown
light: EIVLTQSPDFQSVTPKEKVTITCRASQSIGSSLHWYQQKPDQSPKLLIKYASQSFSGVPSRFSGSGSGTDFTLTINSLEAEDAAAYYCHQSSSLPFTFGPGTKVDIKRTVAAPDIQMTQSPSSVSASVGDRVTITCRASQGISSWLAWYQQKPGKAPKLLIYEASNLETGVPSRFSGSGSGSDFTLTISSLQPEDFATYYCQQTSSFLLSFGGGTKVEHKRTVAAPSVFIFPPSDEQLKSGTASVVCLLNNFYPREAKVQWKVDNALQSGNSQESVTEQDSKDSTYSLSSTLTLSKADYEKHKVYACEVTHQGLSSPVTKSFNRGEC
notes: vectors V1, V2
Consider B5, for which the EC50 with IL-1α came to 2.86 nM; in the assay with Recombinant Human IL-1β [1], 1.89 nM.

B6: DVD166 (bispecific antibody, human IgG1, kappa)
heavy: not shown
light: EIVLTQSPGTLSLSPGERATLSCRASQSVRGRYLAWYQQKPGQAPRLLIYGASSRATGIPDRFSGSGSGTDFTLTISRLEPEDFAVFYCQQYGSSPRTFGQGTKVEIKRTVAAPQIVLSQSPAILSPSPGEKVTMTCRASSSVSYIHWFQQKPGSSPKPWIYATSNLASGVPVRFSGSGSGTSYSLTISRVEAEDAATYYCQQWTSNPPTFGGGTKLEIKRTVAAPSVFIFPPSDEQLKSGTASVVCLLNNFYPREAKVQWKVDNALQSGNSQESVTEQDSKDSTYSLSSTLTLSKADYEKHKVYACEVTHQGLSSPVTKSFNRGEC
notes: vectors V1, V2; also called RANKL and CD-20 DVD-Ig
Turning to B6, the EC50 in assay [2] stood at 0.12 nM.

B7: DVD374 (bispecific antibody, human IgG1, kappa)
heavy: not shown
light: EIVLTQSPDFQSVTPKEKVTITCRASQSIGSSLHWYQQKPDQSPKLLIKYASQSFSGVPSRFSGSGSGTDFTLTINSLEAEDAAAYYCHQSSSLPFTFGPGTKVDIKRTVAAPSVFIFPPDIQMTQSPSSVSASVGDRVTITCRASQGISSWLAWYQQKPGKAPKLLIYEASNLETGVPSRFSGSGSGSDFTLTISSLQPEDFATYYCQQTSSFLLSFGGGTKVEHKRTVAAPSVFIFPPSDEQLKSGTASVVCLLNNFYPREAKVQWKVDNALQSGNSQESVTEQDSKDSTYSLSSTLTLSKADYEKHKVYACEVTHQGLSSPVTKSFNRGEC
notes: vectors V1, V2
Take B7: the 50% effective concentration (EC50) with IL-1α was 8.78 nM; with Recombinant Human IL-1β [1], 6.47 nM.

B8: DVD382 (bispecific antibody, human IgG1, kappa)
heavy: not shown
light: B7 light
notes: vectors V1, V2
In the case of B8, the EC50 with IL-1α turned out to be 4.61 nM; with Recombinant Human IL-1β [1], 6.52 nM.

B9: AB032 (antibody, human IgG1, kappa, V domains shown)
VH: QVQLVESGGGVVQPGRSLRLSCAASGFTFSVYGMNWVRQAPGKGLEWVAIIWYDGDNQYYADSVKGRFTISRDNSKNTLYLQMNGLRAEDTAVYYCARDLRTGPFDYWGQGTLVTVSS
VL: EIVLTQSPDFQSVTPKEKVTITCRASQSIGSSLHWYQQKPDQSPKLLIKYASQSFSGVPSRFSGSGSGTDFTLTINSLEAEDAAAYYCHQSSSLPFTFGPGTKVDIKR
notes: vectors V1 and V2
For the molecule B9, in the assay with Recombinant Human IL-1β [3], the Kd – broadly, the free concentration of one partner at which half of the binding sites on the other are occupied at equilibrium, for simple one-to-one binding – came out at 0.0131 nM. Moreover, the EC50 is 0.91 nM with Recombinant Human IL-1β [1]; 2.61 nM and 5.27 nM with Recombinant Human IL-1β [4].

B10: DVD125 (bispecific antibody, human IgG1, kappa)
heavy: not shown
light: EIVLTQSPDFQSVTPKEKVTITCRASQSIGSSLHWYQQKPDQSPKLLIKYASQSFSGVPSRFSGSGSGTDFTLTINSLEAEDAAAYYCHQSSSLPFTFGPGTKVDIKRTVAAPEIVLTQSPGTLSLSPGERATLSCRASQSVRGRYLAWYQQKPGQAPRLLIYGASSRATGIPDRFSGSGSGTDFTLTISRLEPEDFAVFYCQQYGSSPRTFGQGTKVEIKRTVAAPSVFIFPPSDEQLKSGTASVVCLLNNFYPREAKVQWKVDNALQSGNSQESVTEQDSKDSTYSLSSTLTLSKADYEKHKVYACEVTHQGLSSPVTKSFNRGEC
notes: outer AB032, inner AB018; vectors V1, V2
In the case of B10, in the assay with Recombinant Human IL-1β [5], the “IL-1β Neutralization Assay EC50 (MRC5 cells, hIL-8)” value is 0.043 nM. Moreover, the Kd with Recombinant Human IL-1β [3] worked out at 0.0829 nM; in assay [6] it was 3.5 nM. For the same molecule, the koff (in general, the rate constant with which the complex falls apart) with Recombinant Human IL-1β [3] is 0.000107 s⁻¹; in assay [6] it was 7.45e-05 s⁻¹. Also, the kon – broadly, the rate constant with which the complex forms – with Recombinant Human IL-1β [3] came to 1.29e+06 M⁻¹ s⁻¹; in assay [6] it was 21200 M⁻¹ s⁻¹. In addition, the values for the EC50 (with Recombinant Human IL-1β [4]; in assay [2]) were 4.36 nM and 2.89 nM, respectively.
